Test [1] has as its target phosphorylated CheY K91C, methylene blue at position 91 (E. coli) (UniProt P0AE67). Put plainly: electrochemical sensor.
In test [2] the target is CheY K91C, methylene blue at position 91 (E. coli) (UniProt P0AE67). Put plainly: electrochemical sensor.

For the substance “16-residue target region of the flagellar switch protein FliM (peptide)”, the dissociation constant Kd in test [1] stood at 16 µM; in test [2], 213 µM.

The values above are taken from article PMC6021012.
